For test [1], the target named is T1, cynomolgus CD39 (full length, on CHOK1-cynoCD39 cells) (cynomolgus monkey, UniProt A0A7N9DGH8 1-510).
T1 construct: whole, on cells; also called cCD39
T1 sequence: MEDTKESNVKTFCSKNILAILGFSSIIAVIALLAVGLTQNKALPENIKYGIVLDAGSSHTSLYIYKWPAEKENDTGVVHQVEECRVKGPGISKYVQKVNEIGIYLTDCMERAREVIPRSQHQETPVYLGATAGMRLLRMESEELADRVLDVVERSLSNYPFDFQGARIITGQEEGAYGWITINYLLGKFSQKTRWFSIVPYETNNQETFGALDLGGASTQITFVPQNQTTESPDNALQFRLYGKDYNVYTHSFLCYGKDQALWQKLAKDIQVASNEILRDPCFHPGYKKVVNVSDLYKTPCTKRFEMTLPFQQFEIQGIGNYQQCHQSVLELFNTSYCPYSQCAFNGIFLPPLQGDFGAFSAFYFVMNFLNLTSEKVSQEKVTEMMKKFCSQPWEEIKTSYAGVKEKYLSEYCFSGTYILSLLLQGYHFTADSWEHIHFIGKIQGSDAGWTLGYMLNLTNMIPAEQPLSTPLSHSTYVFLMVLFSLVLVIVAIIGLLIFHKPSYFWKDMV
The test is described as follows: FACS, CHOK1-cynoCD39 cells. A digest of the protocol: (§1)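 Cells incubated 60 min at 4 °C with anti-CD39 antibodies in 4-fold serial dilution from 30 μg/ml in PBS/1% FBS/0.05% Tween-20; CHOK1-blank cells as negative control. Binding read by flow cytometry as mean fluorescence intensity; apparent affinity fitted from full binding curves.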
A general note: Flow cytometry measures light scatter and fluorescence of single cells or particles in a stream.

The target of test [2] is T2, human CD39 (full length, on cells) (human, UniProt P49961 1-510).
T2 construct: Recombinant on CHOK1-hCD39 cells or natural on SK-MEL-28, SK-MEL-5 and MOLP-8 cells; the cell line is named under assay; also called hCD39; ENTPD1
T2 sequence: T1 sequence with I47V, Y94F, I221V, T230I, V329I, N368K, S391A, V489F, I490T
In words: FACS competition on CHOK1-hCD39; competitor mAb19-Alexa488. How it is done:
Anti-CD39 antibodies were labeled using Alex488 labeling kit and were diluted in a series of concentrations, before mixing with CHOK1-hCD39 cells to test binding EC₅₀using FACS. The non-labeled antibodies were tested for their blocking efficacy to the labelled ones. Briefly, mononuclear CHOK1-hCD39 cells were prepared to 2×10⁶/ml and plated into 96 well at 50 μl/well, then mixed with antibodies gradients to final volume at 100 μl, and then equal volume of Alex488 label antibodies were added at two folds EC80 concentration. 96 well plates were incubated at 4° C. for 1 hour, and spun down and washed 3 times with 200 μl FACS buffer. The FACS analysis was performed on FACScelesta machine and data was analyzed by Flowjo software. The blocking percentages were calculated and those having above 80% competition rate were allocated into one epitope group, compared with the non-competing well (Alex488 labeled antibody only).
Based on the competition results, the 4 anti-CD39 hybridoma antibodies (mAb14, mAb19, mAb21, mAb23) can be grouped into 4 different epitope groups, as shown in Table 11.

Test [3] deals with T2, human CD39 (full length, on cells). The test is described as follows: cell-based or functional assay.
For test [4] the target is unchanged. In words: FACS, CHOK1-hCD39 cells. In outline:
as §1

Test [5] shares this target. In words: cell-based or functional assay. This is another data set of the same source.
Test [6] shares this target. In words: FACS, MOLP-8 cells. As for the experimental part:
Similarly, human CD39 expressing cells SK-MEL-5, SK-MEL-28 or MOLP-8, were incubated with a gradient concentration of anti-CD39 antibodies for 30 minutes at 4° C. Cells were washed 3 times using FACS buffer and next incubated with fluorescence labelled secondary antibody (goat-anti-mouse IgG or goat anti-human IgG) for 30 minutes at 4° C. Cells were washed 3 times and then re-suspended in FACS buffer and analyzed by flow cytometry analysis on BD Celesta. Data plotted and analyzed using GraphPad Prism 8.02.
Binding affinity of the humanized antibodies hu23.H5L5 and hu14.H1L1 were tested on different cells by FACS following the similar method as described in Example 3.2.
Reference antibodies T895 and 1394 were tested in parallel as control antibodies. As shown in FIG. 12 and summarized in Table 23, both antibodies hu23.H5L5 and hu14.H1L1 bound to human and cynomolgus CD39 expressing cells in a dose-dependent manner and with similar affinity by EC₅₀ at a sub-nanomolar or nanomolar level. Neither of them recognized mouse CD39 in the FACS study. Maximum signal (mean fluorescence intensity, MFI) differed between cells for each antibody may result from their different expression level.

Where a chain is given by its changes, count along the chain named.

B1: mAb14 (antibody, V domains shown)
VH: EVKLEESGGGLVQPGGSMKLSCVASGFTFSKYWMNWVRQSPEKGLEWVAEIRLKSNKYGTHYAESVKGRFTISRDDSKNNVYLQMNNLRPEDTGIYYCTTQLDLYWFFDVWGAGTTVTVSS
VL: DIVMTQSPAILSVTPGDRVSLSCRASQSISDYLHWYQQKSHESPRLLIKYASQSISGIPSRFSGSGSGSNFTLSINSVEPEDVGVYFCQNGHSLPLTFGAGTKLELR
notes: mouse hybridoma antibody
Take B1: the EC50 – broadly, the midpoint of the concentration-response curve – in test [1] amounted to 3.4 nM; in test [4] it was 2.5 nM. The same molecule returned a blocking percentage in test [2] of 6%. In test [3], the “SK-MEL-28 cell based ATPase inhibition % at 10 nM” value turned out to be 57%.

B2: hu23.H5L5 (antibody, V domains shown)
VH: QVQLVQSGAEVKKPGASVKVSCKASGYNLKDTFLHWVRQAPGQGLEWMGRIDPANGNIKYDPKFQGRVTITADTSANTAYMELISLRSEDTAVYYCANSPYYYGSGYRIFDVWGQGTTVTVSS
VL: QIVLTQSPATLSLSPGERATLSCSAFSSVNYMHWYQQKPGQAPRLLIYTTSNLASGIPTRFSGSGSGTSYTLTISSLEPEDFAVYYCQQRSTYPFTFGQGTKLEIK
notes: humanized c23
B2: in test [5], the “ATPase activity inhibition IC50 on MOLP-8 cells” value was found to be 0.33 nM and the “ATPase activity inhibition IC50 on SK-MEL-5 cells” value amounted to 0.07 nM. For the same molecule, in test [6], it took 0.14 nM to reach a half-maximal effect (EC50).

B3: Antibody 9-8B (antibody, V domains shown)
VH: QIQLVQSGPELKKPGETVKISCKASGYTFTHYGMNWVKQAPGKGLKWMGWINTYTGELTYADDFKGRFAFSLETSASTAYLQINNLKNEDTATYFCARRAYYRYDYVMDYWGQGTSVTVSS
VL: DIVMTQSQKFMSTSVGDRVSVTCKASHNVGTNVAWYQQKPGQSPKALIYSASYRYSGVPGRFTGSGSGTDFTLTISNVQSEDLAEYFCHQYNNYPYTFGGGTKLEIK
Consider B3, for which the values for the concentration giving a half-maximal response (EC50) in test [1] and in test [4] were 1.6 nM and 1.7 nM, respectively. Besides, the blocking percentage in test [2] was found to be 19%. The “SK-MEL-28 cell based ATPase inhibition % at 10 nM” value in test [3] worked out at 21%.

B4: Antibody T895 (antibody, V domains shown)
VH: EVQLQQSGPELVKPGASVKMSCKASGYTFTDYNMHWVKQSHGRTLEWIGYIVPLNGGSTFNQKFKGRATLTVNTSSRTAYMELRSLTSEDSAAYYCARGGTRFAYWGQGTLVTVSA
VL: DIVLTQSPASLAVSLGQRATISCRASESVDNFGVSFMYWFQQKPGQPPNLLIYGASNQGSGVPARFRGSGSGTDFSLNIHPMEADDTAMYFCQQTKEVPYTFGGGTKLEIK
notes: also called 31895
As to B4, in test [5], the “ATPase activity inhibition IC50 on MOLP-8 cells” value came out at 0.51 nM and the “ATPase activity inhibition IC50 on SK-MEL-5 cells” value worked out at 0.09 nM. The EC50 in test [6] stood at 0.11 nM.

The record behind these values is patent US20210388105A1 (ELPISCIENCE SUZHOU BIOPHARMA, published 2021).
